Test results from patent US5910570A, “Cloned DNA encoding a UDP-GalNAc: polypeptide N-acetylgalactosaminy-ltransferase” (Pharmacia & Upjohn Company, priority 1997, dated 1999).
Several values for one entry are separate records, joined by “and”; a condition that tells them apart may be missing. Equal values may be shown once.

Columns and labels:
[1] = target: T1, cloned soluble GalNAc-transferase (GalNAcTs) (Bos taurus, UniProt Q07537); experiment: Kinetic parameters with the cloned soluble GalNAc-transferase (Bond Elut assay); type: biochemical, bovine; conditions: read-out: Km for UDP-GalNAc
T1 construct: The plasmid pAC373-GalNAcT (Homa et al., 1993) which contains the full length GalNAc-transferase gene; honeybee melittin signal peptide (21 aa) (N, cleaved yes); made in house; host or cells: Sf9 cells / baculovirus, purified from serum-free culture medium on apomucin-Sepharose
T1 sequence (Q07537 48-559 limits assumed): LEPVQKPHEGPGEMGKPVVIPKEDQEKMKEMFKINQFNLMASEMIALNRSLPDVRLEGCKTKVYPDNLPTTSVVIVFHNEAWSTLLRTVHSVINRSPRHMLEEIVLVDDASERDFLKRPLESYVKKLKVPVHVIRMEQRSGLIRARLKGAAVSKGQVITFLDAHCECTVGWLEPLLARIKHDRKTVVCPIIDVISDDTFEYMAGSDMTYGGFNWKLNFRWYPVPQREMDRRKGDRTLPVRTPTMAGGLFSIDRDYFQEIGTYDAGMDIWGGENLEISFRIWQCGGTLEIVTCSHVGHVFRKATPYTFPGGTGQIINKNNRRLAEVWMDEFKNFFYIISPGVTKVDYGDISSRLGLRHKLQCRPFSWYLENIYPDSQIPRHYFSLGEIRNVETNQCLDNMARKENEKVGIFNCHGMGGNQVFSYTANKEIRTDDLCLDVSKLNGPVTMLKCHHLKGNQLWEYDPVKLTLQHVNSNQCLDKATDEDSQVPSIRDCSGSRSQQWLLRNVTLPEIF

[2] = tested on: GalNAc-transferase purified from porcine submaxillary glands; conditions: Wang et al., 1992; read-out: Km for UDP-GalNAc; cited from earlier work
[3] = target: T2, bovine colostrum GalNAc-transferase (Bos taurus, UniProt Q07537); set-up: host or cells: bovine colostrum; conditions: Elhammer and Kornfeld, 1986; read-out: Km for UDP-GalNAc; cited from earlier work
T2 sequence (Q07537 41-559 limits assumed): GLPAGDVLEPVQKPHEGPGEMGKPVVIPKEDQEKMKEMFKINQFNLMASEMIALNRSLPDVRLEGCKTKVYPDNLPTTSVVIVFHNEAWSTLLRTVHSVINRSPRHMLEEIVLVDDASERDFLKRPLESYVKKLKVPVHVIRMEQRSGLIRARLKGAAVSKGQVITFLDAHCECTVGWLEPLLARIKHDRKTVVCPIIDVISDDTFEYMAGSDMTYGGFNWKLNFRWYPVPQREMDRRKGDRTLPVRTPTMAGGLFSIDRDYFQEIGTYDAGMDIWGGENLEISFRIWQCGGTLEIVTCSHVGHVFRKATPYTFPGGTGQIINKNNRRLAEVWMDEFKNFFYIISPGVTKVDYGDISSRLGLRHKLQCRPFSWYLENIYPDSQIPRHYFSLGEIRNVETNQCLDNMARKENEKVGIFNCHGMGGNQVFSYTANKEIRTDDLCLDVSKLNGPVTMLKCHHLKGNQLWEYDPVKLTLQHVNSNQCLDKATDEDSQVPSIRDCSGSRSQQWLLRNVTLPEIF

[4] = target: T2, bovine colostrum GalNAc-transferase; experiment: Transfer of N-acetylgalactosamine to protein acceptors; type: biochemical; set-up: from tissue; host or cells: bovine colostrum; conditions: for acceptor activity (in words): native or reduced and carboxymethylated state
Procedure: The above conclusions and the predictions of the specificity algorithm are validated experimentally by studying the ability of bovine colostrum GalNAc-transferase to transfer N-acetylgalactosamine to a variety of acceptors, both native proteins and synthetic acceptor peptides. The transfer of N-acetylgalactosamine to protein acceptors is assayed as described by Elhammer and Kornfeld, 1986, with minor modifications. The concentration of UDP-GalNAc is saturating in all assays; a Km of 8 μM is reported for bovine colostrum GalNAc-transferase (Elhammer and Kornfeld, 1986).
The transfer of N-acetylgalactosamine to protein acceptors was assayed
under standard conditions (see Material and Methods). The acceptor
concentration was 65 μM, the enzyme concentration approximately 65
mU/ml and assay time was 60 minutes. The transfer to both native and
reduced-carboxymethylated acceptors was assayed.

Km [1]	Product formed, Native ([4]; native acceptor 65 μM, enzyme approx. 65 mU/ml, 60 minutes) [nmol/min/mg]	acceptor activity (in words) ([4]; listed as bovine cytochrome C)	acceptor activity (in words) ([4]; listed as cytochrome C)	Product formed, Reduced and carboxymethylated ([4]; reduced and carboxymethylated acceptor 65 μM, enzyme approx. 65 mU/ml, 60 minutes) [nmol/min/mg]	Compound	Km [2] [µM]	Km [3] [µM]
~1.7 µM and 1.7 µM					CC(=O)N[C@H]1[C@@H](OP(=O)(O)OP(=O)(O)OC[C@H]2O[C@@H](n3ccc(=O)[nH]c3=O)[C@H](O)[C@@H]2O)O[C@H](CO)[C@H](O)[C@@H]1O [UDP-GalNAc, UDP-N-acetylgalactosamine]	6	8
	< 0.1	not an acceptor	completely inactive as an acceptor	< 0.1	Bovine cytochrome C: protein with one Ser and eight Thr residues but no predicted potential sites		
